We go through 14 molecules from publication PMC6908968 (Cell, 2019).

For assay [1], the target named is T1, thermolysin-cleaved EBOV GP on Jurkat-GP cells (cleaved GP) (Zaire ebolavirus, Makona (GP1 core …, strain)).
T1 chain 1: not shown
T1 chain 2: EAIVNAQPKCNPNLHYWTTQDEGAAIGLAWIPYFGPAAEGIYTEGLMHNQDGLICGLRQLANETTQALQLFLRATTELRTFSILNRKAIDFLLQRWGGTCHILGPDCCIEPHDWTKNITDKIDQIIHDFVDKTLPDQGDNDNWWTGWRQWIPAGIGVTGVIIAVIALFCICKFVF

Assay [2] concerns the target EBOV GP ectodomain residues 1-636 (GPec) (Zaire ebolavirus, strain  …, UniProt Q05320).

B1: 5.6.c2725 (antibody, V domains shown)
VH: QVQLQESGPGLVKPSQTLSLTCTVSGGSISSGGYYWSWIRQHPGKGLEWIGYIYYSGSTYYNPSLKSRVSISAGTSKNQFSLKLSSVTAADTAVYYCARAYCGGDCYSLLYYYYGMDVWGQGTTVTVSS
VL: QSALTQPASVSGSPGQSITISCTGTSSDVGGYNSVSWYQQHPGKAPKLMIYDVSNRPSGVSDRFSGSKSGNTASLTISGLQAEDEADYYCSSYTSSSTLVFGGGTKLTVL
For the molecule B1, the binding result in assay [1] and in assay [2] was “binds” each time.

B2: 5.6.c2798 (antibody, V domains shown)
VH: QVQLQESGPGLVKPSETLSLTCTVSGGSISPDYWTWIRQPPGKGLEWIGFIYYAGGTDYNPSLKSRVTMSIDTSKKQFFLKLNSVTAADTAVYYCASGVPEDNSQILYYYYGMDVWGPGTTVTVSS
VL: QSVLTQPPSVSAAPGQKVTISCSGSSPNIGNNYVSWYQQLPGTAPKLLIYDNNKRPSGIPDRFSGSKSGTSATLGITGLQTGDEADYYCGTWDRSLSAYVFGTGTKVTVL
Consider B2, for which the binding result in assay [1] and in assay [2] was “binds” each time.

B3: 5.6.c2828 (antibody, V domains shown)
VH: EVQLVQSGAEVKKPGESLRISCKGSGYSFTKYWISWVRQMPGKGLEWMGRIDPSDSSTNYSPSFQGHVTISDDKSTSIVYLQWSSLKASDTAMYYCARHSWVQNSAYDPQMISYDHYYGMDVWGQGTTVTVSS
VL: ENVLTQSPGTLSLSPGERATLSCRASQSVSSSYLAWYQQKPGQAPRLLIYGASSRATGIPDRFSGSGSGTDFTLTISRLEPGDFAVYYCHQYGSSPLTFGQGTRLEMK
In the case of B3, the binding result in assay [1] and in assay [2] was “binds” each time.

B4: 5.6.c2762 (antibody, V domains shown)
VH: QLQLQESGPGLVRPSETLSLTCTVSGGSINTNVYYWGWIRQPPGKGLEWIGTIHYSGSTYYNPSVKSRVTISVDTSTNQFSLRLNSLTAADTAVYYCARLAYGSGWAGWFDPWGQGTLVTVSS
VL: SSELTQDPAVSVALGQTVRITCQGDSLRVYYATWYQQKPGQAPVLVIYAKNSRPSGIPDRFSGSSSGNTASLTITGTQAEDEADYYCNSRDSSGKVWVFGGGTKLTVL
As for B4, the binding result in assay [1] and in assay [2] was “binds” in each case.

B5: 5.6.c2687 (antibody, V domains shown)
VH: QVQLMESGGGVVQPGRSLRLSCAASGFTFSSYGMHWVRQAPGKGLEWVAVIWNDGSNKYYADSVKGRFTISRDNSKNTLYLQMNSLRVEDTAVYYCARDSSAPAAIFYDAFDMWGQGTMVTVSS
VL: EIVMTQSPATLSVSPGERATLSCRASQSINSNLAWYQQKPGQAPRLLIYGVSTRATGIPARFSGSGSGTEFTLTISSLQSEDFAVYYCQQYNNWWTFGQGTKVEIK
B5: the binding result in assay [1] and in assay [2] was “binds” throughout.

B6: 5.6.c2692 (antibody, V domains shown)
VH: QVTLRESGPALVKSTQTLTLTCTFSGFSLSTSGMCVSWIRQPPGKALEWLALIDWDDGKYYSTSLKTRLTISKGTSKNQVVLTMTNMDPVDTATYYCARIRYTSDWFYDAFDIWGQGTMVTVSS
VL: ETVMTQSPATLSVSPGERATLSCRASQSVNSNLAWYQQRPGQAPRLLISGASTRATGIPARFSGSGSGTEFTLTISSLQSEDFAVYYCQQYNDWPPLTFGGGTKVEIK
Consider B6, for which the binding result in assay [1] and in assay [2] was “binds” in each case.

B7: 5.6.c2866 (antibody, V domains shown)
VH: QVQLVQSGAEVKKPGSSVKVSCKASGGTLSSYAISWVRQAPGQGLEWMGRIIPTLGMANYSQNFQGRVTITADKSTSTAYMELSSLRSEDTAVYYCARDPPPGYGDLFYYYSMDVWGQGTTVTVST
VL: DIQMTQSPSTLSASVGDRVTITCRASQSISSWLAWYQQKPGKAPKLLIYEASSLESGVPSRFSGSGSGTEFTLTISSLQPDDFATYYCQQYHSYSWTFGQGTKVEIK
With B7, the binding result in assay [1] and in assay [2] was “binds” throughout.

B8: 5.6.c2773 (antibody, V domains shown)
VH: QVELQESGPGLVKPSGTLSLTCTVSGGSISSYHWSWIRQPPGKGLEWIAYMYYSGSTNYNPSLKSRVTTSVETSKNQLSLKVSSVTAADTAVYYCARIVGDEIFFYGLDVWGQGTTVTVSS
VL: DIQMTQSPSSVSASVGDRVTITCRASQDISILLAWYQQKPGKAPKLLIYAASSLQSGVPSRFSGSGSGTDFTLTISSLQPEDFATYYCQQANSFPWTFAQGTKVEIK
Consider B8, for which the binding result in assay [1] and in assay [2] was “binds” throughout.

B9: 5.6.c2693 (antibody, V domains shown)
VH: QVQVVESGGGVVQPGRSLRLTCATSGFTFRSYGMHWVRQAPGKGLEWVAGISYDGSNKYYADSVKGRFSISRDNSKNTVYLQMNSLRVEDTAVYYCANQLICVNGVCYKTTSVAGIDYWGQGTLVTVSS
VL: DIQMTQSPSSLSASVGDRVTITCRASQDISNYLAWFQQKPGKAPKCLIYAASSLQSGVPSKFSGSGSGTDFTLTISSLQPEDFATYYCQQYKDYPLTFGPGTKVDVR
On to B9, for which the binding result in assay [1] and in assay [2] was “binds” each time.

B10: 5.6.c2886 (antibody, V domains shown)
VH: QVQLQESGPGLVKPSQTLSLTCTVSGGSISSGDYYWSWIRQHPGKGLEYIGYIYYSGSTFHNPSLKSRVTISIDTSKNQFSLKLSSVTAADTAVYYCARDSGSEIIMGAYGMDVWGQGTTVTVSS
VL: DIQMTQSPSSVSASVGDRVTITCRASQGISWLAWYQQKPGKAPKLLIYAASSLQSGVPSRFSGSGSGTDFTLTISSLQPEDFATYYCQQANSFPWTFGQGTKVEIK
Turning to B10, the binding result in assay [1] and in assay [2] was “binds” throughout.

B11: 5.6.c2724 (antibody, V domains shown)
VH: QVQLQQLGAGLLKPSETLSLTCAVSGGSFSGYYWSWIRQSPGKGLEWIGEVNQSGNTNYNPSLKSRVTISPDTSKNQFSLKLSSVTAADTAVYYCARGLEDTALLADAFDIWGQGTLVTVSS
VL: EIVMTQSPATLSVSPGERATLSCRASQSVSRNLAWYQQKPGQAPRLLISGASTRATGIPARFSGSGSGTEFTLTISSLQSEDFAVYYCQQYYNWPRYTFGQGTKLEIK
As for B11, the binding result in assay [1] and in assay [2] was “binds” throughout.

B12: 5.6.c2824 (antibody, V domains shown)
VH: QVQLQESGPGLVKPSGTLSLTCAVSGGSISSNSWWSWVRQPPGKGLEWIGDMYHSGSTNYNPSLKSRVTISVDKSKNQFSLKLSSVTAADTAVYYCARARHDDSNTFLWFVYGMDVWGQGTTVTVSS
VL: DIQMTQSPSSLSASVGDRVTITCRTSQSISSYLNWYQQKPGKAPKLLIYAASSLQSGVPSRFSGSGSGTDFTLTISTLQPEDFATYFCQQSYSTPRTFGQGTKLEIK
Turning to B12, the binding result in assay [1] and in assay [2] was “binds” in each case.

B13: 5.6.c2712 (antibody, V domains shown)
VH: QVQLQESGPGLVKPSETLSLTCSVSGGSISSDYWSWIRQPPGKGLEWIGYIYYDGSTNFNPSLKSRVTISVDTSKNQLSLKLSSVTAADTAVYYCARVRRWIELGTGLGDWFDPWGQGTLVTVSS
VL: SSELTQDPAVSVALGQTVRITCQGDSLRSYYASWHQLKPGQAPVVVIYGIHNRPSGIPDRFSGSSSGNTASLTITGAQAEDEADYYCSSRDSSGNHLVFGGGTKLTVL
As to B13, the binding result in assay [1] and in assay [2] was “binds” throughout.

B14: 5.6.c2801 (antibody, V domains shown)
VH: EVQLVESGGGLVQPGGSLRLSCAASGFTFSTYWMSWVRQAPGKGLEWVANIKEDGSEKYYVDSVKGRFTISRDNGKNSLYLQMNSLRAEETAVYYCARDVPGDTVLGDAFHIWGQGTMVTVSS
VL: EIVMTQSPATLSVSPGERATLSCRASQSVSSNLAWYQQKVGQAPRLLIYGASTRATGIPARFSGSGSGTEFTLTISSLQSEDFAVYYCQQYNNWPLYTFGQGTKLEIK
On to B14, for which the binding result in assay [1] and in assay [2] was “binds” each time.
